Measurements from publication PMC4808631.

Biological target: T1, Ets-1 ΔN331 (UniProt P27577 331-440)
T1 sequence: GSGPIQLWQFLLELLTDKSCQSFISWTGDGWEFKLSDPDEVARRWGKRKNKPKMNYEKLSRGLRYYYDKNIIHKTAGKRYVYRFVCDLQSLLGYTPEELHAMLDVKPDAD
Assay: EMSA

B1: high affinity ETS binding site 27-mer duplex (dsDNA)
DNA 1: TCGACGGCCAAGCCGGAAGTGAGTGCC
DNA 2: TCGAGGCACTCACTTCCGGCTTGGCCG
B1: binds.
